Assay results published in publication PMC2408616, “Modular Organization and Combinatorial Energetics of Proline–Tyrosine Nuclear Localization Signals” (PLoS Biology, 2008).

B1: MBP–Hrp1p NLS [S. cerevisiae] / Kap104p [yeast (S. cerevisiae)] (parent)
chain 1: RDRNDRDRDYNHRSGGNHRRNGRGGRGGYNRRNNGYHPYNR
chain 2: MASTWKPAEDYVLQLATLLQNCMSPNPEIRNNAMEAMENFQLQPEFLNYLCYILIEGESDDVLKQHYSLQDLQNNRATAGMLLKNSMLGGNNLIKSNSHDLGYVKSNIIHGLYNSNNNLVSNVTGIVITTLFSTYYRQHRDDPTGLQMLYQLLELTSNGNEPSIKALSKIMEDSAQFFQLEWSGNTKPMEALLDSFFRFISNPNFSPVIRSESVKCINTVIPLQTQSFIVRLDKFLEIIFQLAQNDENDLVRAQICISFSFLLEFRPDKLVSHLDGIVQFMLHLITTVNEEKVAIEACEFLHAFATSPNIPEHILQPYVKDIVPILLSKMVYNEESIVLLEASNDDDAFLEDKDEDIKPIAPRIVKKKEAGNGEDADDNEDDDDDDDDEDGDVDTQWNLRKCSAATLDVMTNILPHQVMDIAFPFLREHLGSDRWFIREATILALGAMAEGGMKYFNDGLPALIPFLVEQLNDKWAPVRKMTCWTLSRFSPWILQDHTEFLIPVLEPIINTLMDKKKDVQEAAISSVAVFIENADSELVETLFYSQLLTSFDKCLKYYKKKNLIILYDAIGRFAEKCALDETAMQIILPPLIEKWALLSDSDKELWPLLECLSCVASSLGERFMPMAPEVYNRAFRILCHCVELEAKSHQDPTIVVPEKDFIITSLDLIDGLVQGLGAHSQDLLFPQGTKDLTILKIMLECLQDPVHEVRQSCFALLGDIVYFFNSELVIGNLEDFLKLIGTEIMHNDDSDGTPAVINAIWALGLISERIDLNTYIIDMSRIILDLFTTNTQIVDSSVMENLSVTIGKMGLTHPEVFSSGAFANDSNWNKWCLSVNALDDVEEKSSAYMGFLKIINLTSTEVTMSNDTIHKIVTGLSSNVEANVFAQEIYTFLMNHSAQISAINFTPDEISFLQQFTS
B2: MBP–Nab2p NLS [S. cerevisiae] / Kap104p [yeast (S. cerevisiae)] (parent)
chain 1: DNSQRFTQRGGGAVGKNRRGGRGGNRGGRNNNSTRFNPLAKALGMAGESNM
chain 2: B1 chain 2

Tests used:
Experiment in all cases: ITC
[1] = variants of: B1; conditions: with Kap104p [yeast (S. cerevisiae)]; for Kd: parent: 32 nM; for ratio to parent: parent: 1
[2] = variants of: B1; conditions: with Kap104p [yeast (S. cerevisiae)]
[3] = variants of: B2; conditions: with Kap104p [yeast (S. cerevisiae)]; for ratio to parent: parent: 1; for dG: parent: -10

Variant | Kd [1] [nM] | screen value [2] [kcal/mol/K] | ddG [1] [kcal/mol] | screen value [1] [kcal/mol] | ratio to parent [1] | ddG [3] [kcal/mol] | screen value [3] [kcal/mol] | ratio to parent [3] | dG [3] [kcal/mol]
chain 1 RDRNDRDRDYNHRSGGNHARNGRGGRGGYNRRNNGAHPYNR | 60 | -2.2 | 0.4 | -11.9 | 1.9 |  |  |  | 
chain 1 RDRNDRDRDYNHRSGGNHRRNGRGGRGGYNRRNNGLHPYNR |  | -0.9 | -0.02 | -10.9 | 1.1 |  |  |  | 
chain 1 DNSQRFTQRGGGAVGKNRRGGRGGNRGGRNNNSTRLNPLAKALGMAGESNM |  |  |  |  |  | -0.3 | -8.4 | 1.8 | -9.7
chain 1 DNSQRFTQRGGGAVGKNAAGGAGGNAGGANNNSTRFNAAAKALGMAGESNM |  |  |  |  |  |  |  | > 200 | 
chain 1 DNSQRFTQRGGGAVGKNKKGGKGGNKGGKNNNSTRFNPLAKALGMAGESNM |  |  |  |  |  | -0.4 | -9.9 | 0.6 | -10.3

Further lines, results first:

Kd [1] [nM] | screen value [2] [kcal/mol/K] | ddG [1] [kcal/mol] | screen value [1] [kcal/mol] | ratio to parent [1] | ddG [3] [kcal/mol] | screen value [3] [kcal/mol] | ratio to parent [3] | dG [3] [kcal/mol] | Variant
194 |  |  |  |  |  |  |  |  | chain 1 RDRNDRDRDYNHRSGGNHAANGAGGAGGYNRRNNGYHPYNR
 | -2.2 | -0.5 | -12.7 | 0.4 |  |  |  |  | chain 1 RDRNDRDRDYNHRSGGNHRRNGRGGRGGYNRANNGYHPYNR
 | -1.8 | 0.07 | -11.7 | 1.1 |  |  |  |  | chain 1 RDRNDRDRDYNHRSGGNHRRNGRGGRGGYNARNNGYHPYNR
143 |  |  |  |  |  |  |  |  | chain 1 RDRNDRDRDYNHRSGGNHRRNGRGGRGGYNRRNNGAHPYNR
36 | -2.8 | -0.05 | -12.8 | 1.1 |  |  |  |  | chain 1 RDRNDRDRDYNHRSGGNHKKNGKGGKGGYNRRNNGYHPYNR
